This note sets out measurements from CN101045751A (INST OF MICROBIAL EPIDEMIC ACA, dated 2007).

For this assay, the target named is T1, B型肉毒毒素抗原 (Clostridium Botulinum, UniProt P10844 2-1291).
T1 sequence: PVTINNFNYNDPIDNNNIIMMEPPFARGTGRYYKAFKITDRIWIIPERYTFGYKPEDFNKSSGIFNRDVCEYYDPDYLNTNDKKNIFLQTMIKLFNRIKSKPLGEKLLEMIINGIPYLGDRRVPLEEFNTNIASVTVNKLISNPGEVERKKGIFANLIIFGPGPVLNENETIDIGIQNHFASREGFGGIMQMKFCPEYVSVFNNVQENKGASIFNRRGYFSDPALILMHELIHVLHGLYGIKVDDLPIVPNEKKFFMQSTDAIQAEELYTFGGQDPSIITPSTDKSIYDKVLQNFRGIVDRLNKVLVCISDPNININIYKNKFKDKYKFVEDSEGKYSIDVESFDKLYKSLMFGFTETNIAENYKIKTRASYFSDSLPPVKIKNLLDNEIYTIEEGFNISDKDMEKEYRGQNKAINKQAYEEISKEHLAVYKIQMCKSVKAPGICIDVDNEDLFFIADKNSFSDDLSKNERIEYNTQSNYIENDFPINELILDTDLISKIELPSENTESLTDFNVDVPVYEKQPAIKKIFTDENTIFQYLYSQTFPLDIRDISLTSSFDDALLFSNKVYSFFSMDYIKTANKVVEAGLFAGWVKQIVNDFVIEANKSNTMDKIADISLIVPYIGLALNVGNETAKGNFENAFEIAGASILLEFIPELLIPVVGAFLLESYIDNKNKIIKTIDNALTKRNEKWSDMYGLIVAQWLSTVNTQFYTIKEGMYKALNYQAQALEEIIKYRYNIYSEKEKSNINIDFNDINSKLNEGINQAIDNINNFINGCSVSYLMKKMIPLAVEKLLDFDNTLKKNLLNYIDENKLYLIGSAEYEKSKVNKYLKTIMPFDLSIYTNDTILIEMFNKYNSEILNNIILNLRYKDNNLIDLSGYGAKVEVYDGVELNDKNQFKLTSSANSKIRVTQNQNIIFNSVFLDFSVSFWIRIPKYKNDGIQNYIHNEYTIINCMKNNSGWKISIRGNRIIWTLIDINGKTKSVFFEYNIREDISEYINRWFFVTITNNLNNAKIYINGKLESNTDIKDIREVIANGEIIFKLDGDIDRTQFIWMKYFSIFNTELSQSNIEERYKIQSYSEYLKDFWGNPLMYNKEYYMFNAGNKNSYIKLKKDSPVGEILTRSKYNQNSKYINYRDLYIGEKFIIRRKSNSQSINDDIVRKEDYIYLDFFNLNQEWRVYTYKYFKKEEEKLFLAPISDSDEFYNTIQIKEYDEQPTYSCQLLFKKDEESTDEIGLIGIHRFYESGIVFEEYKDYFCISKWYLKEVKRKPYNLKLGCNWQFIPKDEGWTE
Kind of assay: ELISA.

B1: 人源抗A型肉毒神经毒素基因工程抗体 HuAb-BNa 单链抗体 (ScFv) (scFv)
scFv: QVQLQESGPGLVKPSETLSLTCTVSGGSISSGSYYWGWIRQPPGKGLEWIGSIYYSGSTYYNPSLKSRVTISVDTSKNQFSLMLSSVTAADTAVYYCARQGSSGYYQNWFDPWGQGTLVTVSSSGGGGSGGGGSGGGGDVVMTQSPGTLSLSPGERATLSCRASQSVSSSYLAWYQQKPGQAPRLLIYGASSRATGIPDRFSGSGSGTDFTLTISRPEPEDFAVYYCQQPGFTFGPGTKVEIKRTVAA
In the case of B1, the binding result is listed as “no binding”.
